Assay results: patent US20250171505A1 (CENTRE NATIONAL DE LA RECHERCHE SCIENTIFIQUE CNRS, published 2025)

What was measured:
[1] = biological target: T1, VSV Gth, soluble form of the ectodomain of G (amino acid residues 1-422, generated by thermolysine l (vesicular stomatitis virus, Indiana …, UniProt P03522 17-438)); assay: ITC at 20 C, pH 8.0
T1 sequence: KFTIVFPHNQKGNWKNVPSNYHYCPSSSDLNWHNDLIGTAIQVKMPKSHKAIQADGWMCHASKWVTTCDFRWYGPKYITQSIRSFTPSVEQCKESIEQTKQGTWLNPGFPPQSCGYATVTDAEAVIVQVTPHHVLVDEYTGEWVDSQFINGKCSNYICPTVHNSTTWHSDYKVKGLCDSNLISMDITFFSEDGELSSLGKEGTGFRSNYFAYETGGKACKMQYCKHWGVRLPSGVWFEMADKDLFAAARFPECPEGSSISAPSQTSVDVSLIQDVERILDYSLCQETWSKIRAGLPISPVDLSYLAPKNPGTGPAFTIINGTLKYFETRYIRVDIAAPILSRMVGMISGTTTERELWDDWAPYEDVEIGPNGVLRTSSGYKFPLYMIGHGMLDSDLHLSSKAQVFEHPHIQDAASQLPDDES

[2] = biological target: T1, VSV Gth, soluble form of the ectodomain …
[3] = biological target: T1, VSV Gth, soluble form of the ectodomain …; assay: ITC at 20 C, pH 8.0, CR domain injected into Gth

B1: CR1 monovalent domain of human LDL-R (isolated, GST removed) (receptor)
chain: not shown
notes: domain: CR1
binding result [1]: no binding

B2: CR2 monovalent domain of human LDL-R (isolated, GST removed) (receptor)
chain: not shown
notes: domain: CR2
Kd [2]: 7.3 µM
stoichiometry [3]: 1

B3: CR3 monovalent domain of human LDL-R (isolated, GST removed) (receptor)
chain: not shown
notes: domain: CR3
Kd [2]: 4.3 µM
stoichiometry [3]: 1
